Among the data in US20090269356, “Complement Binding Aptamers and Anti-C5 Agents Useful in the Treatment of Ocular Disorders” (published 2009) are Kd, binding result and IC50 values, retold here.

A value given as a limit tells only on which side of the number the result lay.

As usually defined, the Kd is the equilibrium constant for the complex coming apart. The IC50 is the concentration at which inhibition is half-maximal. The low end stands for higher potency, the high end for lower potency.

Data set [1] has as its target T1, complement C5 (full length) (Homo sapiens, UniProt P01031). Nature of the data set: filter; dot blot. The conditions noted are these: tags: Quidel / Complement Technologies A120.14 / Advanced Research Technologies. The procedure: (§1) The selection progress was monitored using a sandwich filter binding (dot blot) assay. The 5′-³²P-labeled pool RNA (trace concentration) was incubated with C5, 1×DPBS plus 0.1 mg/mL tRNA and 0.1 mg/mL salmon sperm DNA, for 30 minutes at room temperature, and then applied to a nitrocellulose and nylon filter sandwich in a dot blot apparatus (Schleicher and Schuell). The percentage of pool RNA bound to the nitrocellulose was calculated and monitored approximately every 3 rounds with a single point screen (+/−300 nM C5). Pool Kd measurements were measured using a titration of protein and the dot blot apparatus as described above.
(§2) Six constructs based on ARC913 (SEQ ID NO: 75) were transcribed, gel purified, and tested in dot blots for binding to C5.

The target of data set [2] is T1, complement C5 (full length). As to the kind of experiment: filter; dot blot, no binding. The note with it: tags: Quidel / Complement Technologies A120.14 / Advanced Research Technologies.
For data set [3] the target is unchanged. Nature of the data set: filter; among 11 best clones in 500 nM screen; Kd not given. The conditions noted are these: tags: Quidel / Complement Technologies A120.14 / Advanced Research Technologies. The procedure: (§3) Doped reselection data. Both the normal and high salt selections were enriched after 5 rounds over the naïve pool. At round 5 the pool Kd was approximately 165 nM for the high salt selection and 175 nM for the normal salt selection. The extent of binding was about 20% at the plateau in both. The R4 pools were cloned using TOPO TA cloning kit (Invitrogen, Carlsbad, Calif.), and 48 clones from each pool were sequenced. 12 clones from each pool were transcribed and assayed in a single point dot blot assay at 500 nM C5. Dissociation constants (Kds) were again measured using the dot blot assay previously described. Kds were estimated for the 11 best clones identified in the single point screen, by fitting the data to the equation: fraction RNA bound=amplitude*Kd/(Kd+[C5]). The clones with the three best Kds were SEQ ID NO: 91 (73 nM), SEQ ID NO: 96 (84 nM) and SEQ ID NO: 95 (92 nM). The sequences for these 11 clones are listed below in Table 5.

For data set [4] the target is unchanged. As to the kind of experiment: filter; dot blot, DPBS. The note with it: tags: Quidel / Complement Technologies A120.14 / Advanced Research Technologies. As for the experimental part:
as §1
as §3, with “Kds were estimated for the 11 best clones identified in the single point screen, by fitting the data to the equation: fraction RNA bound=amplitude*Kd/(Kd+[C5]). The clones with the three best Kds were SEQ ID NO: 91 (73 nM), SEQ ID NO: 96 (84 nM) and SEQ ID NO: 95 (92 nM). The sequences for these 11 clones are listed below in Table 5.” left out

The target in data set [5] is complement C5 in human serum/blood (Homo sapiens, UniProt P01031). As to the kind of experiment: inhibition; CH50 hemolysis, 0.2% human serum, 37 C. The note with it: protein: extract; label: 5'-32P; stem-loop. The source says: The CH50 test measures the ability of the complement system in a serum test sample to lyse 50% of cells in a standardized suspension of antibody-coated sheep erythrocytes. A solution of 0.2% human serum was mixed with antibody-coated sheep erythrocytes (Diamedix EZ Complement CH50 Kit, Diamedix Corp., Miami, Fla.) in the presence or absence of various anti-C5 aptamers. The assay was run according to the kit protocol in veronal-buffered saline containing calcium, magnesium and 1% gelatin (GVB⁺⁺ complement buffer) and incubated for 30 minutes at 37° C. After incubation, the samples were centrifuged to pellet intact erythrocytes. The optical density at 412 nm (OD₄₁₂) of the supernatant was read to quantify the release of soluble hemoglobin, which is proportional to the extent of hemolysis (Green et al., (1995) Chem. Biol. 2:683-95). To verify that the aptamers blocked C5 activation, some hemolysis supernatants were analyzed for the presence of C5a and C5b-9 by ELISA (C5b-9 ELISA kit, Quidel, San Diego, Calif.; C5a ELISA kit, BD Biosciences, San Diego, Calif.) following the ELISA kit protocols.
Chain of complement C5 in human serum/blood (P01031 whole entry): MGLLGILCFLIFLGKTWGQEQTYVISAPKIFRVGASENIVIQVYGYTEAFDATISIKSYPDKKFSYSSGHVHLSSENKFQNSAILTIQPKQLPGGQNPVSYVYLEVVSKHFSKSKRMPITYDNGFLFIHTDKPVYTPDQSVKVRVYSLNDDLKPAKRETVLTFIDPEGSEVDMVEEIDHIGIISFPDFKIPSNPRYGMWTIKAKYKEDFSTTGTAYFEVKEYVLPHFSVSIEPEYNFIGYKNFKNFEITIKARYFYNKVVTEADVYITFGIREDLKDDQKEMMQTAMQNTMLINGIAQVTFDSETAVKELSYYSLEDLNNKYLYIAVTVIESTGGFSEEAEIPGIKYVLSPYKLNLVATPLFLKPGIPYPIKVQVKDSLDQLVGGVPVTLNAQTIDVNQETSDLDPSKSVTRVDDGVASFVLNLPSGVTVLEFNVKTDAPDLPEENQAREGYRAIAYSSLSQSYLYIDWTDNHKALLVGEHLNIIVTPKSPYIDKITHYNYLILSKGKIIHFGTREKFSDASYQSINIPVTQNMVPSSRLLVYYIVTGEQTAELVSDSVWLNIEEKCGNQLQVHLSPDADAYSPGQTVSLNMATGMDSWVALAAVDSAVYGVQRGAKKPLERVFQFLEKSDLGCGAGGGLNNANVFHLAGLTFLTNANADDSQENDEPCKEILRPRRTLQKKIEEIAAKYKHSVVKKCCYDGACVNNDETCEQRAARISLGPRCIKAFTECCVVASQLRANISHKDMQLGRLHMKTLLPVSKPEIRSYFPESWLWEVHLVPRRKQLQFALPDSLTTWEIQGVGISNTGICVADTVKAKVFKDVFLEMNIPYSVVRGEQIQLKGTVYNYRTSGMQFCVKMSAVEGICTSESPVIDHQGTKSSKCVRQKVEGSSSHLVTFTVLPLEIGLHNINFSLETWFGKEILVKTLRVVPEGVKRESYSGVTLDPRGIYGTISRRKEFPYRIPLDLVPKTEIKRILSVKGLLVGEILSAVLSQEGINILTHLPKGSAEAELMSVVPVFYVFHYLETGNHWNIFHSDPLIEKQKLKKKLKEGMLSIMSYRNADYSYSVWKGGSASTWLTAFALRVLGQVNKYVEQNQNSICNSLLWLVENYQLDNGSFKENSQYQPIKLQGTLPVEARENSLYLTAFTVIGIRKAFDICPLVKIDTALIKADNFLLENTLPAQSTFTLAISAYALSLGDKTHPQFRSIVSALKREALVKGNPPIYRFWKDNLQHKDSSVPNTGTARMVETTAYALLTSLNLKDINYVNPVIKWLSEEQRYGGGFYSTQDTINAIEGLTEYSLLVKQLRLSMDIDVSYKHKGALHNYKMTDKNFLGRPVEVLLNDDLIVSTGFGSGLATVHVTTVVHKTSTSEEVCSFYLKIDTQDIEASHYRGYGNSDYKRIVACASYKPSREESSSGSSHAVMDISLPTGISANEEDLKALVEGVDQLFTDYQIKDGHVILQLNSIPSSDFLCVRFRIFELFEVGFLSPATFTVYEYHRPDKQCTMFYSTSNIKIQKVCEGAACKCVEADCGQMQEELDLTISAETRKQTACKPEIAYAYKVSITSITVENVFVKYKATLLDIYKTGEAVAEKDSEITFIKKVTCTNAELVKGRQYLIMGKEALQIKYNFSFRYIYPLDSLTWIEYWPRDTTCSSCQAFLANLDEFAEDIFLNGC

The target in data set [6] is T1, complement C5 (full length). As to the kind of experiment: filter; PBS, 1 mM MgCl2, 23 C, 4 h; 0.6 nM at 37 C; kinetic estimate 0.07 nM (koff 0.013 /min, kon 0.18 /nM/min). The conditions noted are these: tags: Quidel / Complement Technologies A120.14 / Advanced Research Technologies; label: 5'-32P; stem-loop. The procedure: The binding reactions were analyzed by nitrocellulose filtration using a Minifold I dot-blot, 96-well vacuum filtration manifold (Schleicher & Schuell, Keene, N.H.). A three-layer filtration medium was used, consisting (from top to bottom) of Protran nitrocellolose (Schleicher & Schuell), Hybond-P nylon (Amersham Biosciences, Piscataway, N.J.) and GB002 gel blot paper (Schleicher & Schuell). The nitrocellulose layer, which selectively binds protein over nucleic acid, preferentially retained the anti-C5 aptamer in complex with a protein ligand, while non-complexed anti-C5 aptamer passed through the nitrocellulose and adhered to the nylon. The gel blot paper was included simply as a supporting medium for the other filters. Following filtration, the filter layers were separated, dried and exposed on a phosphor screen (Amersham Biosciences) and quantified using a Storm 860 Phosphorimager® blot imaging system (Amersham Biosciences).
To analyze the association reaction, the equilibration rate constant (keq) for the formation of C5·ARC186 was measured in the presence of varying concentrations of C5 protein (1-5 nM). Complex formation was initiated by mixing together C5 protein and radiolabeled ARC186 in PBS containing 1 mM MgCl₂ at room temperature (23° C.), and stopped by nitrocellulose filtration partitioning. […]

Another data set has as its target C5a des Arg (Homo sapiens, UniProt P01031 P01031:678-750). Nature of the data set: filter; printed >>3 uM; PBS, 1 mM MgCl2, BSA, tRNA, 25 or 37 C. The note with it: tags: Complement Technologies A145.6; label: 5'-32P; stem-loop. The procedure:
(§4) The specificity of ARC186 (SEQ ID NO: 4) for C5 was also assessed in nitrocellulose filtration assays by comparison with complement components both upstream and downstream from C5 in the complement cascade. Purified human proteins and protein complexes were purchased from Complement Technologies (Iyler, Tex.) including: C1q (cat. # A099.18; 2.3 μM), C3 (cat. # A113c.8; 27 μM, C5 (cat. # A120.14; 5.4 μM), C5a des Arg (cat. # A145.6; 60 μM), sC5b-9 (cat. # A127.6; 1 μM), factor B (cat. # A135.12; 11 μM) and factor H (cat #A137.13P; 6.8 μM). Binding reactions were established by performing serial dilutions of protein in PBS plus 1 mM MgCl₂, 0.02 mg (mL BSA and 0.002 mg/mL tRNA, incubating for 14 hours at 25° C. or 37° C., and then applied to the nitrocellulose filtration apparatus as described above. Dissociation constants KD were determined from semi-log plots of % nitrocellulose binding versus [C5] by a fit of the data to the equation: % nitrocellulose binding=amplitude×[C5]/(KD+[C5]).

The target in another data set is complement C3 (Homo sapiens, UniProt P01024;P01024 P01024:23-667,P01024:672-1663). As to the kind of experiment: filter; non-activated C3 essentially does not bind. The note with it: tags: Complement Technologies A113c.8; label: 5'-32P; stem-loop. As for the experimental part: as §4
Chain of complement C3 (P01024 23-667, chain 1 of 2): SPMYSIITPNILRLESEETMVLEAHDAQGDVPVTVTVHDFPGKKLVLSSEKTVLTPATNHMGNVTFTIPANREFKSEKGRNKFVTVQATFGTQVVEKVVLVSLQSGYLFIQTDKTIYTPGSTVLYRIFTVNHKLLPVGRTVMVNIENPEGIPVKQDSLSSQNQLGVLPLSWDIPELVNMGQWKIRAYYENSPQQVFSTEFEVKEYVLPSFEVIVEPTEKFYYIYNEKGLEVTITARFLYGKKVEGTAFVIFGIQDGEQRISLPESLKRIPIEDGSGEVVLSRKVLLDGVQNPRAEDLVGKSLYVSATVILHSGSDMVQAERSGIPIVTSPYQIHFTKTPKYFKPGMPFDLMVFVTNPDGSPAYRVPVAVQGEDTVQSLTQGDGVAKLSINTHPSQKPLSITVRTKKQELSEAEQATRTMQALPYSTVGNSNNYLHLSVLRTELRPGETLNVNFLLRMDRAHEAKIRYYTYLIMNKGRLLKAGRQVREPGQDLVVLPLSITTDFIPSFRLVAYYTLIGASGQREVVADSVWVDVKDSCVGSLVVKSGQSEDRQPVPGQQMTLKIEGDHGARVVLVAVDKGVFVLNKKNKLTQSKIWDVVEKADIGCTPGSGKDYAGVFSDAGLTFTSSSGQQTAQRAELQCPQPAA
Chain of complement C3 (P01024 672-1663, chain 2 of 2): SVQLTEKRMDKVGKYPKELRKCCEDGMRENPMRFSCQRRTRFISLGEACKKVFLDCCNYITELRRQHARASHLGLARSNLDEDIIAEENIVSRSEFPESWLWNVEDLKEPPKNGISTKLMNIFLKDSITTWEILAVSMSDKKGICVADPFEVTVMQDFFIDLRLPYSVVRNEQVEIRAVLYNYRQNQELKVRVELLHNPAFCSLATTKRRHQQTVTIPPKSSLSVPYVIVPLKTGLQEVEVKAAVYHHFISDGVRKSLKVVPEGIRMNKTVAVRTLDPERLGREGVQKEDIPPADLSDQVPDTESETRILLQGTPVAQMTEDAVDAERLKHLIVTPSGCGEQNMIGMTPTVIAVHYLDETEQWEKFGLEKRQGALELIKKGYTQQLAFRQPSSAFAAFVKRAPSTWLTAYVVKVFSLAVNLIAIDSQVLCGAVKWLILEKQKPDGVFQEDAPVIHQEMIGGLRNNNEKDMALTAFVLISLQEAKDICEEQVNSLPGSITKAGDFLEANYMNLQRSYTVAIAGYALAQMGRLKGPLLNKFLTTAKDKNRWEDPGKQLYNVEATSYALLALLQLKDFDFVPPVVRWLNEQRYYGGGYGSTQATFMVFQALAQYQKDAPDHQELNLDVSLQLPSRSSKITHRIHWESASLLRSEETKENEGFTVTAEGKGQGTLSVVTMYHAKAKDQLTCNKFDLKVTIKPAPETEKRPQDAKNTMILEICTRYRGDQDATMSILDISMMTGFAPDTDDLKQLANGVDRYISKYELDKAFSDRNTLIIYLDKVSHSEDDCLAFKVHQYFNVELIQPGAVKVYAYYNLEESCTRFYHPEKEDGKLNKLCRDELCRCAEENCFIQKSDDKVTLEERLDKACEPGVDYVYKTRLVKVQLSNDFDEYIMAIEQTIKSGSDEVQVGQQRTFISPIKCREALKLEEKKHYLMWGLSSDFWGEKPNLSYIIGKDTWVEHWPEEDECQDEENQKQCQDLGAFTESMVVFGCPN
The target of a further data set is complement C1q (Homo sapiens, UniProt P02745;P02746;P02747 P02745:23-245,P02746:28-253,P02747:29-245). Nature of the data set: filter; PBS, 1 mM MgCl2, BSA, tRNA. The conditions noted are these: tags: Complement Technologies A099.18; chain copies: 6; label: 5'-32P; stem-loop. As for the experimental part:
as §4

In the next data set the target is sC5b-9 complex (Homo sapiens, UniProt P01031;P01031;P13671;P10643;P07357;P07358;P07360;P02748;P04004 …). As to the kind of experiment: filter; PBS, 1 mM MgCl2, BSA, tRNA, 25 or 37 C. The conditions noted are these: tags: Complement Technologies A127.6; label: 5'-32P; stem-loop. As for the experimental part:
as §4

Data set [7] deals with T1, complement C5 (full length). Nature of the data set: filter; dot blot; 20% plateau; listing entry for SEQ 81 differs in length, printed sequence used. The conditions noted are these: tags: Quidel / Complement Technologies A120.14 / Advanced Research Technologies. As for the experimental part: as §1, §2

T1 sequence (P01031 whole entry): as the sequence (P01031 whole entry) above
Chain of C5a des Arg (P01031 678-750, one chain of several): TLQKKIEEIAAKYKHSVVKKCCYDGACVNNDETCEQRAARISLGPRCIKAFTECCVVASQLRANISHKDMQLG
Chain of complement C1q (P02745 23-245, chain 1 of 3): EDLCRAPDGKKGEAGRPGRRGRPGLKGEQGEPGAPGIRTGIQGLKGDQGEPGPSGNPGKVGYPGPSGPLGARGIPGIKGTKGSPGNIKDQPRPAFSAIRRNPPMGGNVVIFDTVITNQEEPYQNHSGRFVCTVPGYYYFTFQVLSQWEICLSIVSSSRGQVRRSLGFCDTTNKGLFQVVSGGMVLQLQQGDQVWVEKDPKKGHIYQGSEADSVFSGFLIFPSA
Chain of complement C1q (P02746 28-253, chain 2 of 3): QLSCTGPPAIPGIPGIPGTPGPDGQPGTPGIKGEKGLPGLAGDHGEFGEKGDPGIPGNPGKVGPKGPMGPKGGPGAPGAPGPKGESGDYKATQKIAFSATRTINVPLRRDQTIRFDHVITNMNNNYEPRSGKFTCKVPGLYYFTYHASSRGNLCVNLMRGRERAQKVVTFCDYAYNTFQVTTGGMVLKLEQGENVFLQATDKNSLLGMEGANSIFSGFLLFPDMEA
Chain of complement C1q (P02747 29-245, chain 3 of 3): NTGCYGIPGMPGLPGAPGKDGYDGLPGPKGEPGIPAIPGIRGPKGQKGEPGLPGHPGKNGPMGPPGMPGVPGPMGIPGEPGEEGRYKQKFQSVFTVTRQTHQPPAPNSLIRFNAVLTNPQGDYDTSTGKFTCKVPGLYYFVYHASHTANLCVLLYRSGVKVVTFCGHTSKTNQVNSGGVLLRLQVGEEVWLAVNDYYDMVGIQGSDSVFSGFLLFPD

In turn, CCUUGGUUUGGCACAGGCAUACAUACGCAGGG (mixed, dRmY: A,G deoxy; C,U 2'-OMe) [ARC874] registered a Kd in data set [1] of 1000 nM. Consider CCUUGGUUUGGCACAGGCAUACAAACGCAGGG (mixed, dRmY: A,G deoxy; C,U 2'-OMe) [ARC875], for which, in [2], the binding result is reported as “no binding”.

Regarding GGGUUUGGCACAGGCAUACAUACCC (mixed, dRmY: A,G deoxy; C,U 2'-OMe) [ARC876], the binding result in data set [2] is “no binding”.

Turning to GGGUUUGGCACAGGCAUACAAACCC (mixed, dRmY: A,G deoxy; C,U 2'-OMe) [ARC877], in [2], the binding result was “no binding”.

B1: doped clone SEQ 88 (mixed)
RNA: GGGAGAGGAGAGAACGUUCUACCUUGGUUUGGCACAGGCAUACAUACGCAGGGGUCGAUCGGUUACGACUAGCAUCGAUG
modifications: dRmY: A,G deoxy; C,U 2'-OMe
For the molecule B1, the binding result in data set [3] was “binds”.

B2: doped clone SEQ 90 (mixed)
RNA: GGGAGAGGAGAGAACGUUCUACCUUGGUUUGGCACAGGCAUAAAUACGCAGGGCUCGAUCGGUUACGACUAGCAUCGAUG
modifications: dRmY: A,G deoxy; C,U 2'-OMe
As to B2, the binding result in data set [3] is “binds”.

B3: doped clone SEQ 93 (mixed)
RNA: GGGAGAGGAGAGAACGUUCUACCUUGUUGUGGCACAGCCAACCCUACGCACGGAUCGCCCGGUUACGACUAGCAUCGAUG
modifications: dRmY: A,G deoxy; C,U 2'-OMe
As for B3, the binding result in data set [3] was “binds”.

B4: doped clone SEQ 89 (mixed)
RNA: GGGAGAGGAGAGAACGUUCUACCUUGGUUUGGCACAGGCAUACAUACGCAGGUGUCGAUCUGUUACGACUAGCAUCGAUG
modifications: dRmY: A,G deoxy; C,U 2'-OMe
In the case of B4, the binding result in [3] is reported as “binds”.

B5: doped clone SEQ 91 (mixed)
RNA: GGGAGAGGAGAGAACGUUCUACCUUGGUUUGGCCCAGGCAUAUAUACGCAGGGAUUGAUCCGUUACGACUAGCAUCGAUG
modifications: dRmY: A,G deoxy; C,U 2'-OMe
B5: in data set [4], the affinity, expressed as Kd, was 73 nM. Take GGCGGCACAGGCAUACAUACGCAGGGGUCGCC (mixed, dRmY: A,G deoxy; C,U 2'-OMe) [ARC878]: in data set [2], the binding result is given as “no binding”.

B6: doped clone SEQ 92 (mixed)
RNA: GGGAGAGGAGAGAACGUUCUACCUUGGUUUGGCGCAGGCAUACAUACGCAGGUCGAUCGGUUACGACUAGCAUCGAUG
modifications: dRmY: A,G deoxy; C,U 2'-OMe
As for B6, the binding result in [3] is “binds”. CGCCGCGGUCUCAGGCGCUGAGUCUGAGUUUACCUGCG (ssRNA, 2'-F all C and U; 2'-OMe purines except three 2'-OH purines; 3' inverted dT) [ARC186]: the IC50 in [5] is 0.5 nM. In addition, the Kd was 0.08 nM in data set [6], more than 3000 nM with C5a des Arg, more than 300 nM in the data set with complement C1q and more than 200 nM in the data set with sC5b-9 complex. Besides, the binding result with complement C3 is recorded as “no binding”. In data set [7], CGUUCUACCUUGGUUUGGCACAGGCAUACAUACGCAGGGGUCGAUCG (mixed, dRmY: A,G deoxy; C,U 2'-OMe) [ARC954] registered a Kd of 130 nM.

B7: doped clone SEQ 94 (mixed)
RNA: GGGAGAGGAGAGAACGUUCUACCUUGGUUUGGCACAGGCAUACAUACGCAGGUCGAUCGGUUACGACUA
modifications: dRmY: A,G deoxy; C,U 2'-OMe
Take B7: the binding result in [3] is reported as “binds”.

B8: doped clone SEQ 95 (mixed)
RNA: GGGAGAGGAGAGAACGUUCUACCUUAGGUUCGCACUGUCAUACAUACACACGGGCAAUCGGUUACGACUAGCAUCGAUG
modifications: dRmY: A,G deoxy; C,U 2'-OMe
For B8, the Kd in data set [4] came to 92 nM.

B9: doped clone SEQ 97 (mixed)
RNA: GGGAGAGGAGAGAACGUUCUACCUUUCUCUGCCACAAGCAUACCUUCGCGGGGUUCUAUUGGUUACGACUAGCAUCGAUG
modifications: dRmY: A,G deoxy; C,U 2'-OMe
As to B9, the binding result in [3] is “binds”.

B10: doped clone SEQ 98 (mixed)
RNA: GGGAGAGGAGAGAACGUUCUACCUUGGUUUGGCACAGGCAUAUAUACGCAGGGUCGAUCCGUUACGACUAGCAUCGAUG
modifications: dRmY: A,G deoxy; C,U 2'-OMe
With B10, the binding result in [3] is “binds”.
